Substitutions are numbered along the chain they refer to. Ends that are not written are not given here.
How the values were obtained:
[1] = biological target: T1, human α-CGRP K35A (19-37) (human, also: N-terminal biotin when on the chip); experiment: Biacore, 37°C, G1 Fab titrated over N-biotinylated peptide on chip
T1 construct: the entry already carries K35A
T1 peptide: SGGVVKNNFVPTNVGSAAF-NH2
Protocol: (§1) All Biacore assays were conducted in HBS-EP running buffer (10 mM HEPES pH 7.4, 150 mM NaCl, 3 mM EDTA, 0.005% v/v polysorbate P20). CGRP surfaces were prepared by diluting the N-biotinylated CGRP to a concentration of less than 0.001 mg/mL into HBS-EP buffer and injecting it across the SA sensor chip using variable contact times. […] Samples were typically injected for 1 minute at 100 μL/min and dissociation times of at least 10 minutes were allowed. […] An entire titration series (typically generated in duplicate) was fit globally to a 1:1 Langmuir binding model using the BIAevaluation program. This returned a unique pair of association and dissociation kinetic rate constants (respectively, kₒₙ and koff) for each binding interaction, whose ratio gave the equilibrium dissociation constant (KD=koff/kₒₙ).

[2] = biological target: T2, human α-CGRP K35E (19-37) (human, also: N-terminal biotin when on the chip); experiment: as above
T2 construct: the entry already carries K35E
T2 peptide: SGGVVKNNFVPTNVGSEAF-NH2
Protocol: as §1

[3] = biological target: T3, human α-CGRP K35Q (19-37) (human, not fully specified); experiment: as above
T3 construct: the entry already carries K35Q
T3 peptide: SGGVVKNNFVPTNVGSQAF-NH2
Protocol: as §1

[4] = biological target: T4, human α-CGRP F37A (25-37) (human, not fully specified); experiment: as above
T4 construct: the entry already carries F37A
T4 peptide: NNFVPTNVGSKAA-NH2
Protocol: as §1

human α-CGRP 1-37 (WT) [5] = biological target: T5, human α-CGRP 1-37 (WT) (human, C-terminal amide; N-terminal biotin when captured on the SA chip; 125I-labelled in the radioligand assay); experiment: as above
T5 construct: also called α-human
T5 peptide: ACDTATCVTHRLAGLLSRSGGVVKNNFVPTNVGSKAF
Protocol: as §1

[6] = biological target: T6, human α-CGRP fragment 19-37 (human, not fully specified); experiment: as above
T6 peptide: SGGVVKNNFVPTNVGSKAF-NH2
Protocol: as §1

[7] = biological target: T7, human α-CGRP P29A (25-37) (human, not fully specified); experiment: as above
T7 construct: the entry already carries P29A
T7 peptide: NNFVATNVGSKAF-NH2
Protocol: as §1

[8] = biological target: T8, human α-CGRP T30A (25-37) (human, not fully specified); experiment: as above
T8 construct: the entry already carries T30A
T8 peptide: NNFVPANVGSKAF-NH2
Protocol: as §1

[9] = biological target: T9, human α-CGRP N31A (25-37) (human, not fully specified); experiment: as above
T9 construct: the entry already carries N31A
T9 peptide: NNFVPTAVGSKAF-NH2
Protocol: as §1

[10] = biological target: T10, human α-CGRP S34A (25-37) (human, not fully specified); experiment: as above
T10 construct: the entry already carries S34A
T10 peptide: NNFVPTNVGAKAF-NH2
Protocol: as §1

human α-CGRP 19-36 = biological target: T11, human α-CGRP 19-36 (human); experiment: Biacore competition: 50 nM G1 Fab with 10 µM peptide over human α-CGRP on chip
T11 construct: also called 19-36-COOH; peptide fragment 19-36
T11 peptide: SGGVVKNNFVPTNVGSKA-OH
Text: (§2) Y axis represents percentage of binding blocked by the presence of the competing peptide compared with the binding in the absence of the competing peptide.
(§3) All these peptides are amidated at the C-terminus.

Human amylin (1-37) = biological target: T12, Human amylin (1-37) (human, C-terminal amide); experiment: as above
T12 peptide: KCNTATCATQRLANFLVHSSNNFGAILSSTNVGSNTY
Text: as §2, §3

Human calcitonin (1-32) = biological target: T13, Human calcitonin (1-32) (human, C-terminal amide); experiment: as above
T13 peptide: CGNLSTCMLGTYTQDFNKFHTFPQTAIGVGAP
Text: as §2, §3

[11] = biological target: T14, Human adrenomedullin (1-52) (human, C-terminal amide); experiment: as above
T14 peptide: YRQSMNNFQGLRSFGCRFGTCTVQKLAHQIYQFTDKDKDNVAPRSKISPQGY
Text: as §2, §3

human α-CGRP 1-37 (WT) [12] = biological target: T5, human α-CGRP 1-37 (WT); experiment: Biacore, 25°C, Fab over N-biotinylated CGRP on SA chip, high-resolution two-part experiment
Protocol: as §1, with “Biacore assay for affinity determination. […] All” for “All”
(§4) High-resolution analysis of binding interactions with extremely slow off rates. […] The protocol described above was used with the following modifications.

rat α-CGRP (1-37) = biological target: T15, rat α-CGRP (1-37) (rat, C-terminal amide; N-terminal biotin when captured on the SA chip); experiment: as above
T15 construct: also called rat α (1-37); α-rat
T15 peptide: T5 peptide with A1S, D3N, N25D, K35E
Protocol: as §1, with “Biacore assay for affinity determination. […] All” for “All”
as §4

B1: antibody G1 Fab fragment (Fab, V domains shown)
VH: EVQLVESGGGLVQPGGSLRLSCAASGFTFSNYWISWVRQAPGKGLEWVAEIRSESDASATHYAEAVKGRFTISRDNAKNSLYLQMNSLRAEDTAVYYCLAYFDYGLAIQNYWGQGTLVTVSS
VL: EIVLTQSPATLSLSPGERATLSCKASKRVTTYVSWYQQKPGQAPRLLIYGASNRYLGIPARFSGSGSGTDFTLTISSLEPEDFAVYYCSQSYNYPYTFGQGTKLEIK
[1]
  Kd: 1.33 nM
[2]
  Kd: 9.73 nM
[3]
  Kd: 1.38 nM
[4]
  Kd: 95 nM
Human α-CGRP 1-37 (WT) [5]
  Kd: 0.16 nM
[6]
  Kd: 0.16 nM
[7]
  Kd: 0.79 nM
[8]
  Kd: 0.47 nM
[9]
  Kd: 0.53 nM
[10]
  Kd: 3.04 nM
Human α-CGRP 19-36
  binding result: no binding (tested: 10 µM peptide)
Human amylin (1-37)
  binding result: no binding (tested: 10 µM peptide)
Human calcitonin (1-32)
  binding result: no binding (tested: 10 µM peptide)
[11]
  binding result: no binding (tested: 10 µM peptide)
Human α-CGRP 1-37 (WT) [12]
  Kd: 0.042 nM
Rat α-CGRP (1-37)
  Kd: 1.22 nM

Reference: US20190071490A1 (BETH ISRAEL DEACONESS MEDICAL CENTER, published 2019)
